T1: CD5 peptide on HLA-A*02:01 (human)
T1 peptide: SICEGTVEV

T2: CD5 peptide on HLA-A*02:01 (human)
T2 peptide: YLKDGWHMV


Key:
[1] = molecular target: T1, CD5 peptide on HLA-A*02:01; assay: killing
[2] = molecular target: CD5 51-59 epitope (…, SEQ ID NO: 1) in complex with HLA-A2 (human); assay: cell-based or functional assay
[3] = molecular target: T2, CD5 peptide on HLA-A*02:01; assay: killing

| Kd value from peptide titration on peptide loaded T2 cells: fold increase for RNAi-CD5 TCR T cells from HLA-A2+ donors against TCR-transduced T cells from an HLA-A2- donor [2] [fold] | Binder | binding result [3] | other results |
| --- | --- | --- | --- |
|  | T-7378 (TCR, V domains shown) Valpha: AQTVTQSQPEMSVQEAETVTLSCTYDTSESDYYLFWYKQPPSRQMILVIRQEAYKQQNATENRFSVNFQKAAKSFSLKISDSQLGDAAMYFCAYRGTSGTYKYIFGTGTMLKVLA Vbeta: DTEVTQTPKHLVMGMTNKKSLKCEQHMGHRAMYWYKQKAKKPPELMFVYSYEKLSINESVPSRFSPECPNSSLLNLHLHALQPEDSALYLCASSRGLAGPYEQYFGPGTRLTVT |  | binding result [1]: recognises |
| 2.24 | T-20109 TCR (TCR, V domains shown) V domain 1: AQKITQTQPGMFVQEKEAVTLDCTYDTSDPSYGLFWYKQPSSGEMIFLIYQGSYDQQNATEGRYSLNFQKARKSANLVISASQLGDSAMYFCAMREEYSGAGSYQLTFGKGTKLSVIP V domain 2: EPEVTQTPSHQVTQMGQEVILRCVPISNHLYFYWYRQILGQKVEFLVSFYNNEISEKSEIFDDQFSVERPDGSNFTLKIRSTKLEDSAMYFCASSQGPYNEQFFGPGTRLTVLE |  |  |
|  | T-20332 (TCR, V domains shown) Valpha: AQKITQTQPGMFVQEKEAVTLDCTYDTSDPSYGLFWYKQPSSGEMIFLIYQGSYDQQNATEGRYSLNFQKARKSANLVISASQLGDSAMYFCAMREEYSGAGSYQLTFGKGTKLSVIP Vbeta: EPEVTQTPSHQVTQMGQEVILRCVPISNHLYFYWYRQILGQKVEFLVSFYNNEISEKSEIFDDQFSVERPDGSNFTLKIRSTKLEDSAMYFCASSRGPYNEQFFGPGTRLTVL | recognises |  |
|  | T-20109 (TCR, V domains shown) Valpha: AQKITQTQPGMFVQEKEAVTLDCTYDTSDPSYGLFWYKQPSSGEMIFLIYQGSYDQQNATEGRYSLNFQKARKSANLVISASQLGDSAMYFCAMREEYSGAGSYQLTFGKGTKLSVIP Vbeta: EPEVTQTPSHQVTQMGQEVILRCVPISNHLYFYWYRQILGQKVEFLVSFYNNEISEKSEIFDDQFSVERPDGSNFTLKIRSTKLEDSAMYFCASSQGPYNEQFFGPGTRLTVL | recognises |  |
| 1.48 | T-20332 TCR (TCR, V domains shown) V domain 1: AQKITQTQPGMFVQEKEAVTLDCTYDTSDPSYGLFWYKQPSSGEMIFLIYQGSYDQQNATEGRYSLNFQKARKSANLVISASQLGDSAMYFCAMREEYSGAGSYQLTFGKGTKLSVIP V domain 2: EPEVTQTPSHQVTQMGQEVILRCVPISNHLYFYWYRQILGQKVEFLVSFYNNEISEKSEIFDDQFSVERPDGSNFTLKIRSTKLEDSAMYFCASSRGPYNEQFFGPGTRLTVLE |  |  |

From patent publication US20220363732A1 (MAX DELBR CK CENTRUM F R MOLEKULARE MEDIZIN IN DER …, published 2022)
